# Earlier results in patent publication US6406710B1, “Protein occlusion for delivery of small molecules” (priority 1998, dated 2002).
# Conditions: relatively high doses, human clinical trials
molecule,measurement,value
"BDNF: Brain Derived Neurotrophic Factor, a neurotrophin proposed as carrier protein (protein, UniProt P23560 19-247, looked up) Neurotrophic factor BDNF …: APMKEANIRGQGGLAYPGVRTHGTLESVNGPKAGSRGLTSLADTFEHVIEELLDEDQKVRPNEENNKDADLYTSRVMLSSQVPLEPPLLFLLEEYKNYLDAANMSMRVRRHSDPARRGELSVCDSISEWVTAADKKTAVDMSGGTVTVLEKVPVSKGQLKQYFYETKCNPMGYTKEGCRGIDKRHWNSQCRTTQSYVRALTMDSKKRIGWRFIRIDTSCVCTLTIKRGR",tolerability,well tolerated with insignificant adverse effects
